Sequences and labels used below:
B1: mouse apoptosis inhibitor of macrophage (AIM), wild-type recombinant (other, UniProt Q9QWK4 22-352, looked up)
chain: ESPTKVQLVGGAHRCEGRVEVEHNGQWGTVCDDGWDRRDVAVVCRELNCGAVIQTPRGASYQPPASEQRVLIQGVDCNGTEDTLAQCELNYDVFDCSHEEDAGAQCENPDSDLLFIPEDVRLVDGPGHCQGRVEVLHQSQWSTVCKAGWNLQVSKVVCRQLGCGRALLTYGSCNKNTQGKGPIWMGKMSCSGQEANLRSCLLSRLENNCTHGEDTWMECEDPFELKLVGGDTPCSGRLEVLHKGSWGSVCDDNWGEKEDQVVCKQLGCGKSLHPSPKTRKIYGPGAGRIWLDDVNCSGKEQSLEFCRHRLWGYHDCTHKEDVEVICTDFDV
notes: mature; also called rAIM; mouse AIM
B12: human apoptosis inhibitor of macrophage (AIM) (other)
chain: SPSGVRLVGGLHRCEGRVEVEQKGQWGTVCDDGWDIKDVAVLCRELGCGAASGTPSGILYEPPAEKEQKVLIQSVSCTGTEDTLAQCEQEEVYDCSHDEDAGASCENPESSFSPVPEGVRLADGPGHCKGRVEVKHQNQWYTVCQTGWSLRAAKVVCRQLGCGRAVLTQKRCNKHAYGRKPIWLSQMSCSGREATLQDCPSGPWGKNTCNHDEDTWVECEDPFDLRLVGGDNLCSGRLEVLHKGVWGSVCDDNWGEKEDQVVCKQLGCGKSLSPSFRDRKCYGPGVGRIWLDNVRCSGEEQSLEQCQHRFWGFHDCTHQEDVAVICSG
notes: also called human AIM; human rAIM

The target in experiment [1] is mouse HSP70-A1 (low endotoxin; ADI-ESP-502-D, Enzo) (mouse, UniProt Q61696 1-641). As to the kind of experiment: ELISA, DAMP coated at 2 µg/mL, AIM in solution (FIG. 4). From the text: (§1) Therefore, AIM is considered to stably bind to DAMPs through two independent binding modes, namely, charge-based interaction and disulfide bond formation. These two binding sites are also used to bind AIM and IgM pentamer, as previously reported by the present inventors (Hiramoto et al., (2018) (the aforementioned)). […] Furthermore, IgM pentamer not bound to AIM inhibited the binding of AIM to DAMPs in a dose-dependent manner (FIG. 3G). That is, the binding to IgM pentamer functionally inactivates AIM in the binding to DAMPs. Furthermore, the present inventors evaluated under a fluorescence microscope whether the trap and uptake of PRDX1, HMGB1, and S100A9 by macrophages in vitro is inhibited in the presence of rAIM. […] It is known that somewhat larger molecules are more easily taken up by phagocytes (Aderem & Underhill, (1999). Mechanisms of Phagocytosis in Macrophages. Annu. Rev. Immunol. 17, 593-623.; Sarrias et al., (2005) (the aforementioned); Canton et al., Scavenger receptors in homeostasis and immunity. Nat. Rev. Immunol. 13, 621-634.). Therefore, induction of PRDX1 aggregation by AIM is further advantageous for PRDX1 phagocytosis.
Sequence of mouse HSP70-A1 (low endotoxin; ADI-ESP-502-D, Enzo) (Q61696 whole entry): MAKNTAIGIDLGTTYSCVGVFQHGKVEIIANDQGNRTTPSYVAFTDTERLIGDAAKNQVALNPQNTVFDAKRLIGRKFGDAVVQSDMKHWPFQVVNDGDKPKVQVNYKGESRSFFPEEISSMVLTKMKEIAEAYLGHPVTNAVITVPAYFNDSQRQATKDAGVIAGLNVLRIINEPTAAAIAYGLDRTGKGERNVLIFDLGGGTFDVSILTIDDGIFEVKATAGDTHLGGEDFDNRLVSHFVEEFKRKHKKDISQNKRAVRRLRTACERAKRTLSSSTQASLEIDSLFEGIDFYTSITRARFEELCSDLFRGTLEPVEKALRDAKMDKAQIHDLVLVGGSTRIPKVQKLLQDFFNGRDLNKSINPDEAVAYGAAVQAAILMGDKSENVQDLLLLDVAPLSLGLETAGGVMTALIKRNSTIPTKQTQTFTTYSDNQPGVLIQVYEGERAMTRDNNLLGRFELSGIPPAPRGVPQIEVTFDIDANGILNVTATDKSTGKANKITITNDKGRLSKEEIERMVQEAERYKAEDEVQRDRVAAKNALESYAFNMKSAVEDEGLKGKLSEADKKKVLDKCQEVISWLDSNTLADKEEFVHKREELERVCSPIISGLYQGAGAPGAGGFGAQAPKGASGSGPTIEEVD

The next experiment addresses T1, mouse AIM 2CS mutant (mouse, UniProt Q9QWK4 22-352).
T1 construct: Isolated cysteine of the SRCR2 domain replaced by serine; also called mouse 2CS mutant; 2CS AIM mutant
T1 sequence (looked up): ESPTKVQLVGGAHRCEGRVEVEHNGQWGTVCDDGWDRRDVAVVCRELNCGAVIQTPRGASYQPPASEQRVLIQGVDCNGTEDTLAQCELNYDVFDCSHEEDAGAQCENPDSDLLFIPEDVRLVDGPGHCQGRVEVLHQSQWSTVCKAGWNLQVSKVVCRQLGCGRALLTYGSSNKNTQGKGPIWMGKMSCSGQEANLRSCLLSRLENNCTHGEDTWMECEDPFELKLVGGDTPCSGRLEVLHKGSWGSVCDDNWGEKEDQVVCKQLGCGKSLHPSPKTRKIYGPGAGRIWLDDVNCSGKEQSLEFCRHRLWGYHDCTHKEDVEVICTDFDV
Description: ELISA on coated DAMP (FIG. 3E). As to the method:
96-well ELISA plates were coated with DAMPs and control proteins resolved in Bicarbonate buffer (0.1 M NaHCO₃/Na₂CO₃, pH 9.6) at 2 μg/mL unless otherwise specified O/N at 4° C. After the plates were washed with tris buffered saline-tween (TBS-T) four times, they were coated with blocking buffer (1% Casein/TBS) for 2 h at RT. After a wash with TBS-T, AIM resolved in a dilution buffer (0.2% Casein/TBS/2 mM CaCl₂) at various concentrations was added to the well and plates were incubated for 1 h at RT. After 5-times wash with TBS-T/2 mM CaCl₂, biotinylated anti-mouse or human AIM antibody (clone #35 for mouse, clone 7 for human) was added to the wells and incubated for 1 h at RT. After 4-times wash with TBS-T/2 mM CaCl₂, Streptavidin-HRP diluted in 0.2% Casein/TBS/2 mM CaCl₂ was added to the wells and incubated for 1 h at RT. After 4-times wash with TBS-T/2 mM CaCl₂, TMB was added and incubated at RT for 10-25 min. The reaction was stopped by adding 1 N H₂SO₄ and thereby the absorbance at OD 450 nm was analyzed using a multiple plate reader.
For orientation: An ELISA detects its analyte on a solid surface through an enzyme-linked reagent.

Experiment [2] concerns the target B1. Description: ELISA, DAMP coated at 2 µg/mL, AIM in solution (FIG. 3A).
Text: as §1

Experiment [3] deals with B12. The description is as above.
Text: as §1

The target in experiment [4] is B1. As to the kind of experiment: ELISA, DAMP coated at 2 µg/mL, AIM in solution (FIG. 4).
Text: as §1

Experiment [5] concerns the target B12. The experiment is described as above.
Text: as §1

The target in experiment [6] is human HSP70 (Endotoxin Free; SPR-117A, StressMarq) (human, UniProt P0DMV8 1-641). Described as above.
Sequence of human HSP70 (Endotoxin Free; SPR-117A, StressMarq) (P0DMV8 whole entry): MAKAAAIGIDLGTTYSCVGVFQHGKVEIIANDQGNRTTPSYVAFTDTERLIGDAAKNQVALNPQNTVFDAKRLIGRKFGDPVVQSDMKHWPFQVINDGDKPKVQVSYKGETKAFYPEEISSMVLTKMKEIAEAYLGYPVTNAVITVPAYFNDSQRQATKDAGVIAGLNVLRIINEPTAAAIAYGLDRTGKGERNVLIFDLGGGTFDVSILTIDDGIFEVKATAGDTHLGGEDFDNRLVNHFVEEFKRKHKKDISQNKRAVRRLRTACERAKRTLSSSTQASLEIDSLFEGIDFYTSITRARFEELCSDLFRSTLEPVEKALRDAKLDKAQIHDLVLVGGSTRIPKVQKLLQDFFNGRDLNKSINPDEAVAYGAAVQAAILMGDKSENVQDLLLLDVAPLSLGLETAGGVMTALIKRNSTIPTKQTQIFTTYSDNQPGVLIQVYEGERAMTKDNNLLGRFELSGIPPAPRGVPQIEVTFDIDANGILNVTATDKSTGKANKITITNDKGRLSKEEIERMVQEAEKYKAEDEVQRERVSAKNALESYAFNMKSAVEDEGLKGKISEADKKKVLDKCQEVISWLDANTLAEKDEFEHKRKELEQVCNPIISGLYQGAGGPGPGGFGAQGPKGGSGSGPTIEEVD
Text: as §1

In the case of B1, the binding result in experiment [1] is reported as “binds”.

B2: human HMGB1 (1690-HMB-050, R&D Systems) (ligand, UniProt P09429 1-215, looked up)
chain: MGKGDPKKPRGKMSSYAFFVQTCREEHKKKHPDASVNFSEFSKKCSERWKTMSAKEKGKFEDMAKADKARYEREMKTYIPPKGETKKKFKDPNAPKRPPSAFFLFCSEYRPKIKGEHPGLSIGDVAKKLGEMWNNTAADDKQPYEKKAAKLKEKYEKDIAAYRAKGKPDAAKKGVVKAEKSKKKKEEEEDEEDEEDEEEEEDEEDEDEEEDDDDE
notes: also called high-mobility-group-box 1
On to B2, for which the binding result with mouse AIM 2CS mutant is “no binding”; in experiment [2], “binds”; in experiment [3] it was “binds”.

B3: mouse PRDX1 with a HA tag (generated in house) (ligand, UniProt P35700 1-199, looked up)
chain: MSSGNAKIGYPAPNFKATAVMPDGQFKDISLSEYKGKYVVFFFYPLDFTFVCPTEIIAFSDRADEFKKLNCQVIGASVDSHFCHLAWINTPKKQGGLGPMNIPLISDPKRTIAQDYGVLKADEGISFRGLFIIDDKGILRQITINDLPVGRSVDEIIRLVQAFQFTDKHGEVCPAGWKPGSDTIKPDVNKSKEYFSKQK
notes: also called peroxiredoxin 1; mouse PRDXs with a HA tag; not shown: HA tag
With B3, the binding result is “no binding” with mouse AIM 2CS mutant and “binds” in experiment [2].

B4: mouse PRDX2 with a HA tag (generated in house) (ligand, UniProt Q61171 1-198, looked up)
chain: MASGNAQIGKSAPDFTATAVVDGAFKEIKLSDYRGKYVVLFFYPLDFTFVCPTEIIAFSDHAEDFRKLGCEVLGVSVDSQFTHLAWINTPRKEGGLGPLNIPLLADVTKSLSQNYGVLKNDEGIAYRGLFIIDAKGVLRQITVNDLPVGRSVDEALRLVQAFQYTDEHGEVCPAGWKPGSDTIKPNVDDSKEYFSKHN
notes: also called PRDXs; not shown: HA tag
As to B4, the binding result in experiment [4] is given as “binds”.

B5: mouse S100A9 (2065-S9-050, R&D Systems) (ligand, UniProt P31725 1-113, looked up)
chain: MANKAPSQMERSITTIIDTFHQYSRKEGHPDTLSKKEFRQMVEAQLATFMKKEKRNEALINDIMEDLDTNQDNQLSFEECMMLMAKLIFACHEKLHENNPRGHGHSHGKGCGK
As to B5, the results for the binding result (in the experiment with mouse AIM 2CS mutant; in experiment [2]) were “no binding” and “binds”, respectively.

B6: mouse PRDX6 with a HA tag (generated in house) (ligand, UniProt O08709 1-224, looked up)
chain: MPGGLLLGDEAPNFEANTTIGRIRFHDFLGDSWGILFSHPRDFTPVCTTELGRAAKLAPEFAKRNVKLIALSIDSVEDHLAWSKDINAYNGETPTEKLPFPIIDDKGRDLAILLGMLDPVEKDDNNMPVTARVVFIFGPDKKLKLSILYPATTGRNFDEILRVVDSLQLTGTKPVATPVDWKKGESVMVVPTLSEEEAKQCFPKGVFTKELPSGKKYLRYTPQP
notes: as for B4
Regarding B6, in experiment [4], the binding result is “binds”.

B7: mouse S100A8 (9877-S8-050, R&D Systems) (ligand, UniProt P27005 1-89, looked up)
chain: MPSELEKALSNLIDVYHNYSNIQGNHHALYKNDFKKMVTTECPQFVQNINIENLFRELDINSDNAINFEEFLAMVIKVGVASHKDSHKE
As to B7, the binding result in experiment [4] is “binds”.

B8: mouse S100A8/A9 (8916-S8-050, R&D Systems) (ligand)
chain 1: MPSELEKALSNLIDVYHNYSNIQGNHHALYKNDFKKMVTTECPQFVQNINIENLFRELDINSDNAINFEEFLAMVIKVGVASHKDSHKE
chain 2: MANKAPSQMERSITTIIDTFHQYSRKEGHPDTLSKKEFRQMVEAQLATFMKKEKRNEALINDIMEDLDTNQDNQLSFEECMMLMAKLIFACHEKLHENNPRGHGHSHGKGCGK
notes: Complex of S100A8 and S100A9 as bought; also called S100A8/9
In the case of B8, the binding result in experiment [4] is “binds”.

B9: human S100A8 (9876-58-050, R&D Systems) (ligand, UniProt P05109 1-93, looked up)
chain: MLTELEKALNSIIDVYHKYSLIKGNFHAVYRDDLKKLLETECPQYIRKKGADVWFKELDINTDGAVNFQEFLILVIKMGVAAHKKSHEESHKE
On to B9, for which the binding result in experiment [5] is “binds”.

B10: human S100A8/A9 (8226-S8-050, R&D Systems) (ligand)
chain 1: MLTELEKALNSIIDVYHKYSLIKGNFHAVYRDDLKKLLETECPQYIRKKGADVWFKELDINTDGAVNFQEFLILVIKMGVAAHKKSHEESHKE
chain 2: MTCKMSQLERNIETIINTFHQYSVKLGHPDTLNQGEFKELVRKDLQNFLKKENKNEKVIEHIMEDLDTNADKQLSFEEFIMLMARLTWASHEKMHEGDEGPGHHHKPGLGEGTP
notes: as for B8
Consider B10, for which, in experiment [5], the binding result is recorded as “binds”.

B11: human S100A9 (9254-S9-050, R&D Systems) (ligand, UniProt P06702 1-114, looked up)
chain: MTCKMSQLERNIETIINTFHQYSVKLGHPDTLNQGEFKELVRKDLQNFLKKENKNEKVIEHIMEDLDTNADKQLSFEEFIMLMARLTWASHEKMHEGDEGPGHHHKPGLGEGTP
For B11, the binding result in experiment [3] was “binds”.

As to B12, the binding result in experiment [6] is recorded as “binds”.

Values taken from patent US20250108090A1 (published 2025).
